Experimental data published in US9707290.
Where two headings read alike, the source gives them in different places.

Assays:
10E8 antibody [1] = test: SPR
4E10 antibody = test: SPR
germline 4E10 = test: SPR
10E8 antibody [2] = test: SPR; remark: listed apart in the source
10E8 antibody [3] = test: SPR; reference 10E8_T117v2
10E8 antibody [4] = test: SPR; reference 10E8_T298v2
[5] = biological target: germline 10E8 (predicted germline precursor to 10E8); test: SPR
10E8 antibody [6] = test: SPR, antibody on the sensor
[7] = biological target: germline 10E8 (predicted germline precursor to 10E8); test: SPR; remark: listed apart in the source

Binder | Kd (10E8 antibody [1]) [nM] | Kd (4E10 antibody) [nM] | also measured
10E8_T117v2-1_g28_g91012 (designed binder, added N-linked glycosylation sites (glycan-masked)) NAMQGIHFRRHYVRHLPKNVSQNDIIKALASPLINDGMVVSDFADHVITRENNSPTGLPVEPVGVAIPHTDSKYVNQSAISVGILAEPVNFEDANGTPDPVPVRVVFMLALGNWFDITNVLWWIKAVIQDEDFMQQLLNMSDDEIYQSIYTRISE | 0.18 | 0.49 | Kd (germline 4E10): 0.5 nM
10E8_T117v2-1_RSF1 (designed binder) NAMAGIVFRKHYVRHLGKTVTQNEIIRALAAPLISDGMVVKDFADHVIKREEQNPTGLPVQPVGVAIPHTDSKYVYYNAISVGILQEPVAFEDAGGDGRPVPVRVVFMLALGNWFDITNVLWWIKAVIQDDEFMKRLLYMTDDKIYESIRKRIYDLE | 0.05 | 0.1 | Kd (germline 4E10): 0.1 nM
4E10_T117 (designed binder) HHHHHHNAMQGIHFRRHYVRHLPKEVSQNDIIKALASPLINDGMVVSDFADHVITREQNFPTGLPVEPVGVAIPHTDSKYVRQNAISVGILAEPVNFEDAGGEPDPVPVRVVFMLALGNWFDITNVLWWIMDVIQDEDFMQQLLVMNDDEIYQSIYTRISE |  |  | Kd (10E8 antibody [2]): 3 nM; factor weaker than the corresponding 10E8 scaffold (10E8 antibody [3]): 30 fold
4E10_T298 (designed binder) GHHHHHHGSEVSQNDIIKALASPLINDGMVVSDFADHVITREQNAPTGLPVEPVGVAIPHTDSKYVRQNAISVGILAEPVNFEDAGGEPDPVPVRVVFMLALGNWFDITNVLWWIMDVIQDADFMQQLLVMNDDEIYQSIYTRISEAAGMAGIHFRRHYVRHLPLEHHHHHH |  |  | Kd (10E8 antibody [2]): 3 nM; factor weaker than the corresponding 10E8 scaffold (10E8 antibody [4]): 30 fold
10E8_T117v2-1 (designed binder) NAMQGIHFRRHYVRHLPKEVSQNDIIKALASPLINDGMVVSDFADHVITREQNFPTGLPVEPVGVAIPHTDSKYVRQNAISVGILAEPVNFEDAGGEPDPVPVRVVFMLALGNWFDITNVLWWIKAVIQDEDFMQQLLVMNDDEIYQSIYTRISELEHHHHHH | 0.082 | 0.168 | Kd [5]: 30000 nM; Kd (10E8 antibody [6]): 0.091 nM; Kd [7]: 6000 nM; Kd (germline 4E10): 0.187 nM
10E8_T117v2-3 (designed binder) NAMQGIHFRRHYVRHLPKEVSQNDIIKALASPLINDGMVVSDFADHVITREQNFPTGLPVEPVGVAIPHTDSKYVRQNAISVGILAEPVNFEDAGGEPDPVPVRVVFMLALGSWFNISNVLWWIRAVIQDEDFMQQLLVMNDDEIYQSIYTRISELEHHHHHH | 0.925 | 0.526 | Kd [7]: 8000 nM
10E8_T117v2-2 (designed binder) NAMQGIHFRRHYVRHLPKEVSQNDIIKALASPLINDGMVVSDFADHVITREQNFPTGLPVEPVGVAIPHTDSKYVRQNAISVGILAEPVNFEDAGGEPDPVPVRVVFMLALGNWFSITKVLWWIKAVIQDEDFMQQLLVMNDDEIYQSIYTRISELEHHHHHH | 1.3 | 0.0538 | 
10E8_T117v2-5 (designed binder) NAMQGIHFRRHYVRHLPKEVSQNDIIKALASPLINDGMVVSDFADHVITREQNFPTGLPVEPVGVAIPHTDSKYVRQNAISVGILAEPVNFEDAGGEPDPVPVRVVFMLALGNWFDITQVLWWIKAVIQDEDFMQQLLVMNDDEIYQSIYTRISELEHHHHHH | 0.155 |  | 
10E8_T117v2-4 (designed binder) NAMQGIHFRRHYVRHLPKEVSQNDIIKALASPLINDGMVVSDFADHVITREQNFPTGLPVEPVGVAIPHTDSKYVRQNAISVGILAEPVNFEDAGGEPDPVPVRVVFMLALGNWFDISRVLWWIKAVIQDEDFMQQLLVMNDDEIYQSIYTRISELEHHHHHH | 0.59 | 3.9 | Kd [7]: 8000 nM; Kd (germline 4E10): 3.2 nM
10E8_T298v2 (designed binder) GSEVSQNDIIKALASPLINDGMVVSDFADHVITREQNAPTGLPVEPVGVAIPHTDSKYVRQNAISVGILAEPVNFEDAGGEPDPVPVRVVFMLALGNWFDITNVLWWIKAVIQDADFMQQLLRMNDDEIYQSIYTRISEAAGMAGIHFRRHYVRHLGLEHHHHHH |  |  | Kd [5]: 105000 nM; Kd (10E8 antibody [6]): 0.172 nM
10E8_T93v2RT12-1 (designed binder) GKADEVREKARRRMEQAVEEFKRRLRQFEEKVKQKEPRDDEINRWIDIVKKKADEAKKRVEEVGDQAADEAAQLGNDPNVNWFDITNVLWDVKKLTEKAINDIDDALKKMKDWLESGLEHHHHHH | 0.04 | 0.018 | Kd [7]: 290000 to 720000 nM
10E8_T93v2RT12-5 (designed binder) GKADEVREKARRRMEQAVEEFKRRLRQFEEKVKQKEPRDDEINRWIDIVKKKADEAKKRVEEVGDQAADEAAQLGNDPNVNWFDITQVLWDVKKLTEKAINDIDDALKKMKDWLESGLEHHHHHH | 0.022 |  | 
10E8_T93v2RT12-4 (designed binder) GKADEVREKARRRMEQAVEEFKRRLRQFEEKVKQKEPRDDEINRWIDIVKKKADEAKKRVEEVGDQAADEAAQLGNDPNVNWFDISRVLWDVKKLTEKAINDIDDALKKMKDWLESGLEHHHHHH | 2.7 |  | 
10E8_T93v2RT12-3 (designed binder) GKADEVREKARRRMEQAVEEFKRRLRQFEEKVKQKEPRDDEINRWIDIVKKKADEAKKRVEEVGDQAADEAAQLGNDPNVSWFNISNVLWDVRKLTEKAINDIDDALKKMKDWLESGLEHHHHHH | 0.11 | 0.58 | 
